From patent US20240174763A1 (NOVOPROTEIN SCIENTIFIC, published 2024) come the findings set out here.

The target of test [1] is T1, human CD73 on SK-OV-3 cells (human ovarian adenocarcinoma cells) (human, UniProt P21589 27-549).
T1 construct: whole, on cells; also called human CD73 positive cells
T1 sequence (looked up): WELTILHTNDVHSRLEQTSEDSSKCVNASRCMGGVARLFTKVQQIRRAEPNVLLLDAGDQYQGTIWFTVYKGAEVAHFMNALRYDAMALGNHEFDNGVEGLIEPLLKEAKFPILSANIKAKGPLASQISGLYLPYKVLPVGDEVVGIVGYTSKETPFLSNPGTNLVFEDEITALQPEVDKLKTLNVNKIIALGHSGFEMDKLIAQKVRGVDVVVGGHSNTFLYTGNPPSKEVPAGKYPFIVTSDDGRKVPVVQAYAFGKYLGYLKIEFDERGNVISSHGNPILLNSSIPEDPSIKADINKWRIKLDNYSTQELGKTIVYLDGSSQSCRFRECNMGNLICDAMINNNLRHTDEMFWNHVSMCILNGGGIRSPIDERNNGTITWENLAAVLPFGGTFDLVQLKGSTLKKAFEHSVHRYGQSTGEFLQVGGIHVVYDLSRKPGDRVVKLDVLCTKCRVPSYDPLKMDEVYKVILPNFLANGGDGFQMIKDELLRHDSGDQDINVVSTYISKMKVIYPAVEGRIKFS
Put plainly: flow cytometry on SK-OV-3 cells. For orientation: Flow cytometry measures light scatter and fluorescence of single cells or particles in a stream.

For test [2], the target named is T2, monkey CD73 on CHOK1-cynoCD73 cells (monkey, UniProt A0A2K5V5U7 27-549, GPI anchor at the C-terminus of the mature chain (paragraph 3 says CD73 is GPI-anchored). The propeptide 550-574 is removed.).
T2 construct: also called CHOK1-cyno73 cells; monkey CD73 positive cells
T2 sequence: T1 sequence (looked up) with M199T, T350A, V466I
Put plainly: flow cytometry on CHOK1-cynoCD73 cells. From the text: The full length of monkey CD73 was constructed on a eukaryotic expression vector containing NEO resistance, CHO-K1 cells were transfected, G418 was used for screening to obtain a CHOK1-cynoCD73 cell strain.

Test [3] concerns the target T1, human CD73 on SK-OV-3 cells (human …). Put plainly: flow cytometry on SK-OV-3 cells, anti-hFc-APC.
Test [4] addresses T3, recombinant human CD73 protein (human, UniProt P21589 27-547, limits assumed).
T3 construct: Bought recombinant protein; the assays only say recombinant human CD73; also called rhCD73; recombinant hCD73 protein
T3 sequence (looked up): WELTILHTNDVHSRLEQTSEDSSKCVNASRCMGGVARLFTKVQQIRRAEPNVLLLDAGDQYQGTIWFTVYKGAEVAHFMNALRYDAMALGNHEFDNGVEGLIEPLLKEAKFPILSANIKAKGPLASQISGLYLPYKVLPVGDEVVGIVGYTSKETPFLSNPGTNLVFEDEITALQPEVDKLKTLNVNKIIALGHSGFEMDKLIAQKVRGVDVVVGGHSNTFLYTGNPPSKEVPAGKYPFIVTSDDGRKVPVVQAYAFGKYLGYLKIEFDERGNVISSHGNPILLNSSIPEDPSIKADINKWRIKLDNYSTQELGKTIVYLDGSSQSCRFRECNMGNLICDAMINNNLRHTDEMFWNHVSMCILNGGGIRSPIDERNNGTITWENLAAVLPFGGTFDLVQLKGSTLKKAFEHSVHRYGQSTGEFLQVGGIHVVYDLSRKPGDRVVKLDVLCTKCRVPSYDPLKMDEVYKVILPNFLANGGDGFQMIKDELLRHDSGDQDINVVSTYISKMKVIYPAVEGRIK
The experiment in a line: ELISA, recombinant human CD73 coated at 3 ug/mL. (In general: In an ELISA, binding on a coated surface is turned into a signal by an enzyme label.)

Test [5] deals with T4, recombinant monkey CD73 protein (monkey, UniProt A0A2K5V5U7 27-549).
T4 construct: Monkey species not further named for the recombinant protein (the cell line is called cynoCD73)
T4 sequence: T1 sequence (looked up) with M199T, T350A, V466I
Put plainly: ELISA, recombinant monkey CD73 coated at 3 ug/mL. From the text: (§1) The combination of antibody and the recombinant monkey CD73 was detected by an ELISA method, and the result is shown in FIG. 8B.

In test [6] the target is T3, recombinant human CD73 protein. The experiment in a line: ELISA, plate coated with recombinant human CD73 at 3 µg/mL.
Test [7] addresses T4, recombinant monkey CD73 protein. The experiment in a line: ELISA, plate coated with recombinant monkey CD73 at 3 µg/mL.
Text: as §1

For test [8], the target named is T3, recombinant human CD73 protein. Put plainly: ELISA, recombinant human CD73.
The target of test [9] is T4, recombinant monkey CD73 protein. Put plainly: ELISA, recombinant monkey CD73.
Test [10] deals with T1, human CD73 on SK-OV-3 cells (human …). Put plainly: flow cytometry on SK-OV-3 cells. This is another data set of the same source.
Test [11] has as its target T2, monkey CD73 on CHOK1-cynoCD73 cells. Put plainly: flow cytometry on CHOK1-cynoCD73 cells. The source holds these as a separate data set.
The target is the same in test [12]. The experiment in a line: flow cytometry on CHOK1-cynoCD73 cells. The source holds these as a separate data set.
The target of test [13] is T1, human CD73 on SK-OV-3 cells (human …). Put plainly: flow cytometry on SK-OV-3 cells, anti-hFc-APC. The source holds these as a separate data set.
Test [14] addresses T3, recombinant human CD73 protein. The experiment in a line: ELISA, recombinant human CD73 coated at 3 ug/mL. This is another data set of the same source.
Test [15] has as its target T4, recombinant monkey CD73 protein. Put plainly: ELISA, recombinant monkey CD73 coated at 3 ug/mL. The source holds these as a separate data set.

Where a chain is given by its changes, count along the chain named. Like-named read-outs stand apart in the source and are kept apart here.

B1: humanized CQ137 monoclonal antibody (137-3) (antibody, V domains shown)
VH: QVQLVQSGAEVKKPGSSVKVSCKASGYSFTGYYIHWVRQAPGQGLEWMGRINPYNGATTYNQNFKDRVTITVDKSTSTAYMELSSLRSEDTAVYYCARFHYGAPDYWGQGTLVTVSS
VL: DIQMTQSPSSLSASVGDRVTITCKASQDINTYLTWYQQKPGKAPKTLIYRANILVDGVPSRFSGSGSGTDFTLTISSLQPEDFATYYCLQYDEFPLTFGGGTKVEIKR
As usually defined, the EC50 is the concentration that produces a half-maximal response. By EC50 (read off the curve) is commonly meant the midpoint of the concentration-response curve. In the case of B1, the EC50 in test [1] amounted to 7.03 µg/mL; in [2], 0.0403 µg/mL; in [6] it was 0.331 µg/mL; in test [7] it was 0.202 µg/mL. In addition, the “EC50 (read off the curve)” value was around 0.04 µg/mL in [2], around 3 ng/mL in test [3], around 0.3 µg/mL in test [4] and around 0.2 µg/mL in [5].

B2: humanized CQ137 monoclonal antibody (137-8) (antibody, V domains shown)
VH: B1 VH with Y106F
VL: B1 VL with E93Q
Turning to B2, the EC50 in test [8] turned out to be 0.312 µg/mL; in test [9], 3.76 µg/mL; in [10] it was 0.00487 µg/mL; in test [11] it was 0.00782 µg/mL. For the same molecule, the “EC50 (read off the curve)” value is around 0.008 µg/mL in test [12], around 5 ng/mL in test [13] and around 0.3 µg/mL in test [14].

B3: humanized CQ137 monoclonal antibody (137-2) (antibody, V domains shown)
VH: B1 VH with S16A, I70M, S84R, E89D
VL: B1 VL with Y36F, T46S
B3: the EC50 in test [1] was 3.26 µg/mL; in test [2], 0.0233 µg/mL; in [6], 0.275 µg/mL; in test [7] it was 0.313 µg/mL. The “EC50 (read off the curve)” value in test [2] is around 0.02 µg/mL; in test [3], around 7 ng/mL; in test [4], around 0.3 µg/mL; in test [5], around 0.3 µg/mL.

B4: humanized CQ137 monoclonal antibody (137-6) (antibody, V domains shown)
VH: B1 VH with D105E
VL: B1 VL with D92A
With B4, the EC50 in test [8] worked out at 0.267 µg/mL; in test [9], 0.315 µg/mL; in [10], 0.00371 µg/mL; in test [11], 0.00769 µg/mL. Besides, the “EC50 (read off the curve)” value in [12] is around 0.008 µg/mL; in [13] it was around 4 ng/mL; in test [14] it was around 0.3 µg/mL; in [15] it was around 0.3 µg/mL.

B5: humanized CQ137 monoclonal antibody (137-1) (antibody, V domains shown)
VH: B1 VH with S16A, S28T, I70M, S84R, E89D
VL: B1 VL with Y36F, T69Q, F71Y
As to B5, the EC50 in test [1] came out at 2.13 µg/mL; in [2] it was 0.0862 µg/mL; in test [6], 0.258 µg/mL; in test [7] it was 3.76 µg/mL. In addition, the “EC50 (read off the curve)” value in test [2] was around 0.09 µg/mL; in test [3], around 2 ng/mL; in test [4] it was around 0.3 µg/mL.

B6: humanized CQ137 monoclonal antibody (137-5) (antibody, V domains shown)
VH: B1 VH with P104A
VL: B1 VL with D92N
Turning to B6, the EC50 in [8] was 0.387 µg/mL; in test [9], 0.734 µg/mL; in [10], 0.0234 µg/mL; in [11], 0.0154 µg/mL. In addition, the results for the “EC50 (read off the curve)” value in test [12] and in [13] were around 0.02 µg/mL and around 20 ng/mL, respectively.

B7: humanized CQ137 monoclonal antibody (137-9) (antibody, V domains shown)
VH: B1 VH with Y106L
VL: B1 VL with E93A
Turning to B7, the EC50 in [8] came to 0.446 µg/mL; in [9] it was 3.76 µg/mL; in test [10], 0.0331 µg/mL; in test [11], 0.0193 µg/mL. Besides, the “EC50 (read off the curve)” value in [12] is around 0.02 µg/mL; in test [13], around 30 ng/mL; in test [14], around 0.4 µg/mL.

B8: humanized CQ137 monoclonal antibody (137-4) (antibody, V domains shown)
VH: B1 VH with P104V
VL: B1 VL with D92E
As for B8, the 50% effective concentration (EC50) in [8] worked out at 0.262 µg/mL; in test [9] it was 0.352 µg/mL; in test [10] it was 0.00307 µg/mL; in [11], 0.00831 µg/mL. For the same molecule, the “EC50 (read off the curve)” value in test [12] is around 0.008 µg/mL; in test [13], around 3 ng/mL; in [14] it was around 0.3 µg/mL; in test [15] it was around 0.4 µg/mL.

B9: humanized CQ137 monoclonal antibody (137-7) (antibody, V domains shown)
VH: B1 VH with D105N
VL: B1 VL with E93D
Take B9: the concentration giving a half-maximal response (EC50) stood at 0.5 µg/mL in test [8], 6.57 µg/mL in test [9], 0.0301 µg/mL in test [10] and 0.0239 µg/mL in test [11]. The “EC50 (read off the curve)” value in test [12] is around 0.02 µg/mL.
